# Measurements: the RNAGym collection of RNA variant scans (doi:10.7554/elife.80360)
# B1: HDV Ribozyme (parent)
# chain: GGCCGGCAUGGUCCCAGCCUCCUCGCUGGCGCCGGCUGGGCAACAUUCCGAGGGGACCGUCCCCUCGGUAAUGGCGAAUGGGACCCA
# Variants of: B1
# Experiment: self-cleavage, relative activity (ratio to wild type); higher = more cleavage; co-transcriptional
row,Variant,self-cleavage
1,G11C G39U,0
2,G11U C30U,0.0923
3,U12A C86G,0.32
4,U12A G34C,0.208
5,G11U A42U,0.0852
6,G11C G74A,0.117
7,U12A C13U,0.0978
8,U12A C57G,0.208
9,U12A G50A,0.229
10,U12A G50U,0.767
11,G11U A78U,0.0755
12,G11U C13U,0.0674
13,U12A U65C,0.506
14,U12A C84A,0.506
15,G11U C44A,0.256
16,G11U C44G,0.0723
17,G11U C44U,0.193
18,G11U G50A,0.415
19,U12A G31C,0
20,G11U U60C,0.342
21,G11U U60A,0.277
22,U12C C13U,0
23,U12C C13G,0
24,U12C C13A,0.0665

row,Variant,self-cleavage
1,G11U C14G,0.0692
2,G11U C14U,0.406
3,G11U G67U,0.168
4,U12A C75U,0.0361
5,U12A C75A,0.095
6,U12A C75G,0.277
7,G11U C19G,0.058
8,G11U C19A,0.0382
9,G11C G54U,0.289
10,G11C U46G,0.133
11,G11U C24G,0.0966
12,G11U C24U,0.111
13,U12A G59C,0.573
14,U12C C36U,0.107
15,G11C G52C,0.266
16,G11U C21A,0.0329
17,G11C G80U,0.0621
18,G11C G80C,0.295
19,G11U C36A,0.0755
20,U12A U46C,0
21,U12A U46A,0.361
22,U12A C22G,0.0405
23,G11U G38C,0
24,U12A C19A,0.0287

row,Variant,self-cleavage
1,U12A C66A,0.193
2,U12A G68C,0.0755
3,U12A C41G,0.138
4,U12A G52U,0.604
5,U12C A45C,0.0504
6,G11C G50U,0.54
7,G11C G50A,0.271
8,U12A G54C,0.269
9,U12C A70U,0.378
10,G11U A87C,0.415
11,G11U G81C,0.126
12,U12A G28C,0
13,G11C U47A,0.151
14,G11U G82U,0.138
15,U12C C19A,0.0361
16,G11U C62U,0.403
17,U12C C44U,0.0692
18,U12A G80A,0.108
19,U12A G17C,0.0504
20,U12A G29U,0.113
21,U12A G29A,0.113
22,U12C A87U,0.396
23,U12C A71U,0.453
24,G11C G40U,0.189

row,Variant,self-cleavage
1,U12A G73U,0.0997
2,G11U A77U,0.0906
3,G11U A77C,0.0652
4,U12A C33G,0
5,G11C G81C,0.0519
6,G11U G34U,0.0252
7,U12A A78U,0.128
8,U12A G67C,0.244
9,G11C G82A,0.262
10,U12A C32U,0.0723
11,U12A C14A,0.0504
12,U12A C14G,0.145
13,U12A U47A,0.302
14,G11U C63G,0.248
15,G11U G76C,0.532
16,G11U G53A,0.427
17,U12A C15G,0
18,U12A C15A,0.19
19,G11U A43U,0.0893
20,U12A A83U,0.674
21,U12A A83C,0.35
22,U12C C30G,0.0573
23,G11U U12A,0.116
24,G11U U27A,0.511

row,Variant,self-cleavage
1,G11U A16G,0.309
2,G11U A16U,0.673
3,G11U U23A,0.437
4,G11U U23C,0.554
5,G11U C58U,0.447
6,U12C C26G,0.914
7,G11C G35U,0.271
8,U12A U72A,0.0831
9,G11C G55A,0.407
10,U12A U79A,0.0791
11,G11C U23C,0.277
12,G11U C15A,0.155
13,G11U C15U,0.258
14,G11U C66U,0.249
15,G11U C66G,0.397
16,U12A C30U,0.0739
17,U12A C26A,0.745
18,U12A C26U,0.982
19,U12A G25A,0.108
20,G11U C85G,0.689
21,G11U C85A,0.755
22,G11U U20A,0.0252
23,G11C G28A,0.0225
24,U12A U37C,0.277

row,Variant,self-cleavage
1,U12A U23G,0.0791
2,G11U G74U,0.1
3,U12C C18A,0.0739
4,G11U G52U,0.561
5,G11C G59A,0.434
6,U12C C33U,0.32
7,U12C C33G,0.101
8,U12A U60G,0
9,G11U C26G,0.527
10,U12C A78G,0.192
11,U12C A42U,0
12,G11C U27G,0.356
13,U12C A51C,0.378
14,U12C A51G,0.369
15,G11C G29U,0.0225
16,U12C A43C,0.0831
17,U12C A43U,0.0923
18,U12C A56U,0.499
19,U12C A56C,0.453
20,G11C U72G,0
21,G11C U72C,0.119
22,G11U C64A,0.256
23,G11U C32U,0.215
24,G11U U37G,0

row,Variant,self-cleavage
1,G11U U37A,0.124
2,U12A C62U,0.252
3,G11U U79C,0.0652
4,G11U C18U,0.0504
5,G11U C18A,0.0674
6,U12A C61A,0.443
7,U12A C49U,0.499
8,G11C G34A,0.108
9,G11C U20C,0.0437
10,G11U C48U,0.369
11,U12A U27A,0.791
12,G11C G38U,0.0845
13,G11U U47G,0.246
14,U12C C48G,0.185
15,U12C C48A,0.762
16,G11U G80U,0.113
17,G11U G80C,0
18,G11U C57A,0.447
19,G11U G54U,0.422
20,G11U A56G,0.378
21,G11U A56U,0.391
22,G11U G39U,0.0936
23,G11U C49A,0.307
